This is an account of results in the supplement of paper PMC7877785.

± gives the uncertainty stated by the source.

The data set is described as follows: self-splicing fitness, log relative to wild type (ln ratio); higher = more splicing; Tetrahymena group I intron in knt gene, E. coli kanamycin selection, DiMSum; sequences stand for … in CUCUCU…GGAGGGAAAAGUUAUCAGGCAUGCACCUGGUAGCUAGUCUUUAAACCAAUAGAUUGCAUCGGUUUAAAAGGCAAGACCGUCAAAUUGCGGGAAAGGGGUCAACAGCCGUUCAGUACCAAGUCUCAGGGGAAACUUUGAGAUGGCCUUGCAAAGGGUAUGGUAAUAAGCUGACGGACAUGGUCCUAACCACGCAGCCAAGUCCUAAGUCAACAGAUCUUCUGUUGAUAUGGAUGCAGUUCACAGACUAAAUGUCGGUCGGGGAAGAUGUAUUCUUCUCAUAAGAUAUAGUCGGACCUCUCCUUAAUGGGAGCUAGCGGAUGAAGUGAUGCAACACUGGAGCCGCUGGGAACUAAUUUGUAUGCGAAAGUAUAUUGAUUAGUUUUGGAGUACUCGUGGUCG
The essentials: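 Colonies from six replicate transformations of E. coli BL21(DE3) were pooled and amplicon-sequenced on an Illumina HiSeq 2500. The library placed an intron with all eight P1ex-region nucleotides randomised inside the knt kanamycin-resistance gene on pET-22b(+), and cells grew overnight at 37°C or 30°C on LB agar with or without 25 μg/mL kanamycin (plus 100 μg/mL carbenicillin, 50 μM IPTG, 0.2% rhamnose). Fitness is the DiMSum error-weighted combination of wild-type-normalised replicate fold changes, kanamycin versus none.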

As to UCAUAGCAAUAUUACGGAGC, the “self-splicing fitness (ln)” value is -2.3 ± 0.29 (30 °C) and -3.14 ± 0.4 (37 °C).

UCAUAGCAAUAUUACGGAUA: the “self-splicing fitness (ln)” value runs as follows: (30 °C) -1.51 ± 0.23; (37 °C) -2.59 ± 0.33.

UCAUAGCAAUAUUACGGAUU: the “self-splicing fitness (ln)” value was -3.52 ± 0.12 (30 °C) and -3.06 ± 0.16 (37 °C).

For UCAUAGCAAUAUUACGGCAA, the “self-splicing fitness (ln)” value (30 °C) was -2.25 ± 0.13 and the “self-splicing fitness (ln)” value (37 °C) was -1.14 ± 0.1.

Turning to UCAUAGCAAUAUUACGGUGC, the “self-splicing fitness (ln)” value is, setting by setting: (30 °C) -2.88 ± 0.21; (37 °C) -3.08 ± 0.26.

Turning to UCAUAGCAAUAUUACGUAAA, the “self-splicing fitness (ln)” value was -2.76 ± 0.19 (30 °C) and -1.99 ± 0.21 (37 °C).

In the case of UCAUAGCAAUAUUACGUAUG, the “self-splicing fitness (ln)” value was -3.28 ± 0.16 (30 °C) and -2.09 ± 0.11 (37 °C).

UCAUAGCAAUAUUACGUGAG: the “self-splicing fitness (ln)” value (30 °C) was -1.1 ± 0.081 and the “self-splicing fitness (ln)” value (37 °C) was -0.39 ± 0.11.

Take UCAUAGCAAUAUUACGUGUG: the “self-splicing fitness (ln)” value runs as follows: (30 °C) -1.8 ± 0.068; (37 °C) -1.84 ± 0.075.

UCAUAGCAAUAUUACGUUAU: the “self-splicing fitness (ln)” value reads like this: (30 °C) -3.05 ± 0.14; (37 °C) -2.21 ± 0.16.

As for UCAUAGCAAUAUUACGUUCA, the “self-splicing fitness (ln)” value (30 °C) was -1.73 ± 0.1 and the “self-splicing fitness (ln)” value (37 °C) was -1.57 ± 0.1.

As for UCAUAGCAAUAUUACGUUCC, the “self-splicing fitness (ln)” value (37 °C) is -1.99 ± 0.29.

UCAUAGCAAUAUUACGUUCG: the “self-splicing fitness (ln)” value by setting is: (30 °C) -1.03 ± 0.098; (37 °C) -0.686 ± 0.1.

For the sequence UCAUAGCAAUAUUACGUUGG, the “self-splicing fitness (ln)” value runs as follows: (30 °C) -4.13 ± 0.46; (37 °C) -1.05 ± 0.24.

As to UCCAAGCAAUAUUACGAAGC, the “self-splicing fitness (ln)” value was -2.87 ± 0.25 (30 °C) and -1.93 ± 0.21 (37 °C).

UCCAAGCAAUAUUACGACAA: the “self-splicing fitness (ln)” value is, setting by setting: (30 °C) -2.14 ± 0.13; (37 °C) -1.47 ± 0.1.

Turning to UCCAAGCAAUAUUACGACUA, the “self-splicing fitness (ln)” value was -1.2 ± 0.12 (30 °C) and 0.12 ± 0.1 (37 °C).

For the sequence UCCAAGCAAUAUUACGAGCG, the “self-splicing fitness (ln)” value by setting is: (30 °C) -1.96 ± 0.081; (37 °C) -0.978 ± 0.099.

With UCCAAGCAAUAUUACGCAAA, the “self-splicing fitness (ln)” value is -2.18 ± 0.24 (30 °C) and -0.843 ± 0.17 (37 °C).

In the case of UCCAAGCAAUAUUACGCAGU, the “self-splicing fitness (ln)” value (30 °C) is -2.03 ± 0.082 and the “self-splicing fitness (ln)” value (37 °C) was -0.856 ± 0.093.

As to UCCAAGCAAUAUUACGCCUA, the “self-splicing fitness (ln)” value is -0.968 ± 0.12 (30 °C) and 0.0562 ± 0.1 (37 °C).

On to UCCAAGCAAUAUUACGCUGG, for which the “self-splicing fitness (ln)” value runs as follows: (30 °C) -4.72 ± 0.28; (37 °C) -1.81 ± 0.18.

As for UCCAAGCAAUAUUACGCUUC, the “self-splicing fitness (ln)” value is, setting by setting: (30 °C) -3.36 ± 0.15; (37 °C) -4.24 ± 0.2.

As for UCCAAGCAAUAUUACGGACU, the “self-splicing fitness (ln)” value is -3.5 ± 0.21 (30 °C) and -2.28 ± 0.18 (37 °C).

UCCAAGCAAUAUUACGGCUC: the “self-splicing fitness (ln)” value (30 °C) was -3.84 ± 0.37.

As to UCCAAGCAAUAUUACGGGGU, the “self-splicing fitness (ln)” value (30 °C) is -2.76 ± 0.11 and the “self-splicing fitness (ln)” value (37 °C) is -1.96 ± 0.13.

As for UCCAAGCAAUAUUACGGGUG, the “self-splicing fitness (ln)” value runs as follows: (30 °C) -1.63 ± 0.05; (37 °C) -0.583 ± 0.06.

Regarding UCCAAGCAAUAUUACGGUGA, the “self-splicing fitness (ln)” value was -0.389 ± 0.054 (30 °C) and 0.493 ± 0.077 (37 °C).

As to UCCAAGCAAUAUUACGGUGU, the “self-splicing fitness (ln)” value (30 °C) is -0.788 ± 0.047 and the “self-splicing fitness (ln)” value (37 °C) came out at 0.18 ± 0.066.

With UCCAAGCAAUAUUACGGUUU, the “self-splicing fitness (ln)” value is, setting by setting: (30 °C) -3.75 ± 0.2; (37 °C) -2.48 ± 0.21.

On to UCCAAGCAAUAUUACGUCUC, for which the “self-splicing fitness (ln)” value is -3.53 ± 0.32 (30 °C) and -2.02 ± 0.46 (37 °C).

With UCCAAGCAAUAUUACGUGUC, the “self-splicing fitness (ln)” value (30 °C) was -3.42 ± 0.12 and the “self-splicing fitness (ln)” value (37 °C) was -2.94 ± 0.12.

Consider UCCAAGCAAUAUUACGUUCC, for which the “self-splicing fitness (ln)” value (37 °C) was -1.57 ± 0.31.

In the case of UCCCAGCAAUAUUACGAAGG, the “self-splicing fitness (ln)” value reads like this: (30 °C) -3.68 ± 0.23; (37 °C) -1.63 ± 0.23.
